B1: Hammerhead Ribozyme (parent)
chain: ACCGGAUGUGCUUUCCGGUCUGAUGAGUCCGUGAGGACGAAACAG

Variants of: B1
Assay: self-cleavage, relative activity (ratio to wild type); higher = more cleavage; co-transcriptional

Row | Variant | self-cleavage
1 | ACCGGAUGUGCUUCCCGGUCGGAUGAGUCCGUGAGGACGAAACAG | 0.319
2 | ACGGGAUGUGCUUUCCGGUCUGAUGAGUCCGUGAGGACGAAACAU | 0.374
3 | ACCGGAUGGGGUUUCCGGUCUGAUGAGUCCGUGAGGACGAAACAG | 1.17
4 | ACCGGAUGGGUUUUCCGGUCUGAUGAGUCCGUGAGGACGAAACAG | 0.342
5 | ACCGGAUGUGCUUUCCGGCCUGAUGAGUCCGUAAGGACGAAACAG | 0.579
6 | ACCGGAUGUGCUUUACUGUCUGAUGAGUCCGUGAGGACGAAACAG | 0.374
7 | ACCGGGUGUUCUUUCCGGUCUGAUGAGUCCGUGAGGACGAAACAG | 1.1
8 | ACCGGAUGUGCUUUCCGGUCUGAUGAGUUCUUGAGGACGAAACAG | 0.783
9 | ACCCGAUGUGCUUUCCCGUCUGAUGAGUCCGUGAGGACGAAACAG | 0.291
10 | ACCGGAUGUGCUUACCGGUCUGAUGAGUCCGUGCGGACGAAACAG | 1.05
11 | ACCGGAUGUGCUGUCCGCUCUGAUGAGUCCGUGAGGACGAAACAG | 0.696
12 | ACCGGAUGUGCUUUUCGGUCUGAUGAGUCCGUGACGACGAAACAG | 0.601
13 | ACCGGAUGUGCUUUCCGGUCUUAUGAGUCCGUGACGACGAAACAG | 0.311
14 | ACCGGAUGUGCUUUCCGGUAUGAUGGGUCCGUGAGGACGAAACAG | 0.344
15 | ACCGGAUGUGCUUUCCGGUCUGAUCAGUUCGUGAGGACGAAACAG | 0.235
16 | ACCGGAUGUGCUUUCCGCUCUGAUGAGUCCGUGAGGACGAAACCG | 0.435
17 | ACCCGAUGUGCUUUCCGGUCUGAUGAGUCCUUGAGGACGAAACAG | 0.748
18 | ACCGGAUGUGCUUUCCGGUCUGAUGGGUCCGUGAGGACGAAAAAG | 0.325
19 | ACCGGAUGUGCUUUCCGGUCUGAUGAGUCCUUGAGGACAAAACAG | 0.32
20 | ACCGGAUGUGCGGUCCGGUCUGAUGAGUCCGUGAGGACGAAACAG | 0.848
21 | ACCGGGUGUGCUUUCCGGUCUGAUGAGUCCGUGAGUACGAAACAG | 0.314
22 | ACCGGAUGUGCUUUCCGGUCUGAUGAGUCCGCGAGGACGAAACUG | 0.359
23 | ACCGGAUGUGCUUACCGGUCUGAUGGGUCCGUGAGGACGAAACAG | 0.343

Row | Variant | self-cleavage
24 | ACCGGAUGUGCUUUCCGGUCUGAUGAGUCCGUGGGGACGAAAUAG | 0.393
25 | ACCGGAUGUGCUUUCGGGUCUGAUGAGUCCGUGAGGACGAAGCAG | 0.346
26 | ACCGGAUGUGCUUUCGGGUCUGAUGAGUCCGUGAGGACGAAUCAG | 0.26
27 | ACCGGUUGUGCUUUCCGGUCUGAUGAGUCCGUGAGGCCGAAACAG | 0.677
28 | ACCGGAUGUGCAUUCCGGUCUGAUGAGUCCGUGAGGACGUAACAG | 0.32
29 | ACCGGAUGUGCUUUCCGGUCUGAUGAGUCCGUGAGGAUGAGACAG | 0.352
30 | ACCGGAUGUGGUUUCCGGUCUGAUGAGUCGGUGAGGACGAAACAG | 1.22
31 | ACCGGAGGUGCUUUCCGGUCUAAUGAGUCCGUGAGGACGAAACAG | 0.33
32 | ACCGGGUGUGCUUUCCGGUCUGAUGAGUCCGUGAGGACCAAACAG | 0.297
33 | ACCGGAUGUGCUAUCCGGUCUGAUGAGUCCGUGAGGACGUAACAG | 0.379
34 | ACCGGAUGGGCUUUCCGGUCUGAUGAGUCCGUGAGGUCGAAACAG | 0.611
35 | AUCGGAUGUGCUUUCCGGUCUGAUGAGUCCGGGAGGACGAAACAG | 1.04
36 | ACCGGAUGUGCUCUCCGGUCUGAUUAGUCCGUGAGGACGAAACAG | 0.367
37 | ACCGGAUGAGCUUUCCGGUCUGAUGAGUCCGUGAGGACGAAACAC | 0.609
38 | ACCGGCUGUGGUUUCCGGUCUGAUGAGUCCGUGAGGACGAAACAG | 0.958
39 | ACCGGACGUGCUUUCAGGUCUGAUGAGUCCGUGAGGACGAAACAG | 0.738
40 | ACCGGAUGUGCUUUCCGGUCUGAUGAGUCCGUGAGGACCACACAG | 0.351
41 | ACCGGAUGUGCUUUCCGCUCUGAUGAGUCCGUGAGGACGAAACAC | 0.383
42 | ACCGGAUGUGCUUUCCGGUCUAAUGAGUCCGCGAGGACGAAACAG | 0.29
43 | ACCGGAUGUGCUUUCCGGUCUGAUGAGUCCGUGAGUAAGAAACAG | 0.326
44 | ACCCGAUGUGCUUUCCGGUCUGAUGAGUCCGUAAGGACGAAACAG | 0.879
45 | ACCGGAUGUGCAUUCCGGUCUGAUGAGUCCGUGAGGACGACACAG | 0.325
46 | ACCGGAUGUGCUUUCCGGUCUGAUGAGUACGUGAGGACGAAACCG | 0.323

Row | Variant | self-cleavage
47 | AGCGGAUGUGCUUUCCGGUCUGAUGAGUCCGUGAUGACGAAACAG | 0.272
48 | ACCGGAUGUGCUUUUCGGUCUGAUGAGUCCGUGAGGACGAAGCAG | 0.265
49 | ACCGGAUGUGCUUUCCGGUCAGAUGAGUCCGUGAGGACGAGACAG | 0.401
50 | ACCGGCUGUGCUUUCCGGUCUGUUGAGUCCGUGAGGACGAAACAG | 0.271
51 | ACCGGAUGUGCUUUCCUGUCUGAUGAGUCCGUGAGGACGAAACGG | 0.877
52 | AGCGGAUGUGCUUUCCGGUCUGAUGAGUCCGUGAGGACGAAACUG | 0.323
53 | ACCGGAUGUGCUUUCCGGUCUGAUGAGUCUGUGACGACGAAACAG | 0.758
54 | ACCGGAUGUACUUUCAGGUCUGAUGAGUCCGUGAGGACGAAACAG | 1.4
55 | ACCGAAUGUGCUUUCCGGUCUGAUUAGUCCGUGAGGACGAAACAG | 0.354
56 | ACCGUAUGUGCUUUCCGGUAUGAUGAGUCCGUGAGGACGAAACAG | 0.292
57 | ACCCGAUGUGCUUUCCGGUCGGAUGAGUCCGUGAGGACGAAACAG | 0.239
58 | GCCCGAUGUGCUUUCCGGUCUGAUGAGUCCGUGAGGACGAAACAG | 0.32
59 | ACCGGAUGUGCUUUCCGCUCUGAUGAGUCCGUGAGGACGAUACAG | 0.36
60 | ACCGGAUGUGCUUUCCGGUCUGAUAAGUCCGUGAGGACGAUACAG | 0.275
61 | ACCGGAUUUGCUUUCCGGUCUGAUGAGUCCAUGAGGACGAAACAG | 1.23
62 | ACCGGAGGUGCUUUCCGGUCUGAUGAGUCGGUGAGGACGAAACAG | 1.19
63 | ACCGGAUGUGCUUUCCGGUCUGAUAAGUCCGUGAGGACGAAACCG | 0.38
64 | ACCGGCUGUGCUUUCCGGUCUGAUGAGUCCGUGAGGAGGAAACAG | 0.427
65 | ACCGGAUGUGCUUUCCGGUCUGAUGAGUCCGUGAGGACGAUAUAG | 0.362
66 | ACGGGGUGUGCUUUCCGGUCUGAUGAGUCCGUGAGGACGAAACAG | 0.294
67 | ACCGGAUGUGCUUUCCGGUCUGAUGAGUCCGUGAGGACCUAACAG | 0.296
68 | ACCGGUUGUGCUUUCCGGUCUGAUGAGUCCGUGAGGACGAAACCG | 0.455
69 | ACCGGAGGUGCUUUCCGGUCUGAUGAGUCCGUGAGGACGAAAUAG | 0.389

Row | Variant | self-cleavage
70 | ACCGGAUGUGCUUUCCGGCCUGAUGAGUCCGUGAGGACGCAACAG | 0.305
71 | ACCGGAUGUGUUUUCCGGUCUGAUGAGUCCGUGAGGACGAAACUG | 0.497
72 | ACCUGAUGUGCUUUGCGGUCUGAUGAGUCCGUGAGGACGAAACAG | 0.436
73 | ACCGGGUGUGCUUUCCGGUCUGAUGAGUCCGUGAGGUCGAAACAG | 0.44
74 | ACCGGAUGUGCUAUCCGGUCUGAUGAGUCCGUGAGGACGAAACAC | 0.808
75 | ACCGGACGCGCUUUCCGGUCUGAUGAGUCCGUGAGGACGAAACAG | 1.28
76 | ACCGGAUGUGCUUUCCGGUCUGAUGUGUCCGUGAGGGCGAAACAG | 0.736
77 | ACUGGAUGUGCUUUCCGGUCUGAUUAGUCCGUGAGGACGAAACAG | 0.345
78 | ACCGGAUGUUCCUUCCGGUCUGAUGAGUCCGUGAGGACGAAACAG | 0.689
79 | ACCGGAUGUGUUUUCCGGUCUGAUGAGUCCUUGAGGACGAAACAG | 1.35
80 | ACCGGAUGUGCUUUCCUGUCUGAUGAGUCCGUGGGGACGAAACAG | 0.604
81 | ACCGGAAGUGCUUUCCGGUCUGAUGGGUCCGUGAGGACGAAACAG | 0.221
82 | ACCGGAUGUGCUUUCCGUUCUGAUGAGUCCGUGAGGGCGAAACAG | 0.629
83 | ACCGGAUGUGCUCUCCGGUCUGAUGCGUCCGUGAGGACGAAACAG | 0.782
84 | ACCGGAUAUGCUUUCCGGUCUGAUGAGUCCCUGAGGACGAAACAG | 0.889
85 | ACCGGAUGUGCUUUCCGGUCUGAUGAAUCCGGGAGGACGAAACAG | 0.628
86 | ACCGGAUGUGCUUUCCGGUCGGAUGAGUCCGUGAGGACGAUACAG | 0.333
87 | ACCGGAUAUGCCUUCCGGUCUGAUGAGUCCGUGAGGACGAAACAG | 0.897
88 | ACCGCAUGUGCUUUGCGGUCUGAUGAGUCCGUGAGGACGAAACAG | 1.13
89 | ACCGGAUGUGCUUUCCGGUCUGAUGAAUCCGUGAGGACGAAACCG | 0.373
90 | ACCGGAUGUGCUUUCCGGUCUGAUGAGUCGGUGAGGACGAUACAG | 0.266
91 | UCCGGAUUUGCUUUCCGGUCUGAUGAGUCCGUGAGGACGAAACAG | 0.728
92 | ACCGGAUGGGCUUUCCAGUCUGAUGAGUCCGUGAGGACGAAACAG | 0.456

Row | Variant | self-cleavage
93 | ACCGGAUGUGCUUUCCGGACUGAUGAGUCCGUGAGGACGAAAAAG | 0.279
94 | ACCGGAUGUGCUUUCCGGUCUGUUGAGUCCGUGAUGACGAAACAG | 0.37
95 | ACCGGAUGUGCUUUCCGGUAUGAUGAGGCCGUGAGGACGAAACAG | 0.552
96 | ACCGGAUGUGCUUUCCGAUCUGAUGAGUCCGUGAGGACCAAACAG | 0.326
97 | ACCAGAUGUGCUUUCCGGUCUGAUGAGUCCGUGAGGACGGAACAG | 0.379
98 | ACCGGAUGUGCUUUCCGUUCUGAUGAGUCCGUGAGAACGAAACAG | 0.621
99 | ACCGGCUGUGCUUUCCGGUCUGAUGAGUCCGUGAGGACGAAACGG | 1.06
100 | ACCUGACGUGCUUUCCGGUCUGAUGAGUCCGUGAGGACGAAACAG | 0.361
101 | ACCUGAAGUGCUUUCCGGUCUGAUGAGUCCGUGAGGACGAAACAG | 0.432
102 | ACCGGAUGUGCUGUCCGGUCUGAUGAGUCCGUGAGGACGCAACAG | 0.454
103 | ACCGGAUGUGCUUUCCGGUCUGAUGAGACCGGGAGGACGAAACAG | 0.306
104 | GCCGGAUGUGCUUUCCGGUUUGAUGAGUCCGUGAGGACGAAACAG | 0.971
105 | ACCGGAUGUGCUUUCCGGUCUGAGGAGUCAGUGAGGACGAAACAG | 0.626
106 | ACCGGAUGUGCUUUCCGGUCUGAUGAAUCCGUGCGGACGAAACAG | 0.431
107 | ACCGGAUGUGCUUUCCGGUCUGAUGAGUCCGUGGGCACGAAACAG | 0.276
108 | ACCGGAUCUGCAUUCCGGUCUGAUGAGUCCGUGAGGACGAAACAG | 1.01
109 | ACCGGAUGUGCUUUCAGGUUUGAUGAGUCCGUGAGGACGAAACAG | 0.567
110 | ACCGGAUGUGCGUUCCGGUCUGAGGAGUCCGUGAGGACGAAACAG | 0.795
111 | ACCGGAUGUGCUUUCCGGUGUGGUGAGUCCGUGAGGACGAAACAG | 0.386
112 | CCCGGAUGUGCUUUCCGGUCUGAUGAGUCCGUGAGGACGAAACUG | 0.377
113 | ACCGGAUGUGCUUUCCGGUCUGAUGAGUCCGUGAGGAGGAACCAG | 0.226
114 | ACCGGAUCUGCUUUCCGGUCUGCUGAGUCCGUGAGGACGAAACAG | 0.45
